Each block holds one binder with its values, some of them ahead of it.
Columns and labels:
Recombinant Human IL-17 [1] = molecular target: T1, Recombinant Human IL-17 (human, UniProt Q16552 20-155, limits assumed); assay: Biacore SPR; C-terminal VD
T1 construct: bought reagent
T1 sequence (looked up): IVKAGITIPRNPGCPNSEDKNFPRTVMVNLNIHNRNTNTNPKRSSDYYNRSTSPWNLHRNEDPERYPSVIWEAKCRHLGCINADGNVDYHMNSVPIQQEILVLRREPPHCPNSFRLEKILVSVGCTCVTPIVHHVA
In short: (§1)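 Antibodies or DVD-Ig were captured at 25 μg/ml on an amine-coupled goat anti-mouse IgG (Fcγ) CM5 surface, with a blank dextran reference. Antigen was injected at 10−200 nM in HBS-EP pH 7.4 at 25° C. A global 1:1 Langmuir fit gave kon and koff, and KD = koff/kon.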

Recombinant Human IL-1β [2] = molecular target: T2, Recombinant Human IL-1β (human, UniProt P01584 117-269); assay: Biacore SPR; N-terminal VD
T2 construct: bought reagent; also called IL-1B
In short: as §1

Recombinant Human IL-1β [3] = molecular target: Recombinant Human IL-1β (human, UniProt P01584 117-269); assay: cell-based or functional assay
Recombinant Human IL-17 [4] = molecular target: T3, Recombinant Human IL-17 (human, UniProt Q16552 20-155, limits assumed); assay: cell-based or functional assay
T3 sequence (looked up): T1 sequence (looked up)

- Kd (Recombinant Human IL-17 [1]): < 0.0032 nM
- koff (Recombinant Human IL-17 [1]): < 1e-06 s⁻¹
- kon (Recombinant Human IL-17 [1]): 310000 M⁻¹ s⁻¹
- Kd (Recombinant Human IL-1β [2]): 0.032 nM
- koff (Recombinant Human IL-1β [2]): 3.1e-05 s⁻¹
- kon (Recombinant Human IL-1β [2]): 960000 M⁻¹ s⁻¹
B1: DVD1591 (bispecific antibody, human IgG1, kappa)
heavy: not shown
light: DIQMTQSPSSLSASVGDRVTITCRASGNIHNYLTWYQQTPGKAPKLLIYNAKTLADGVPSRFSGSGSGTDYTFTISSLQPEDIATYYCQHFWSIPYTFGQGTKLQITRTVAAPSVFIFPPDIQMTQSPSSLSASVGDRVTITCRASSGIISYIDWFQQKPGKAPKRLIYATFDLASGVPSRFSGSGSGTDYTLTISSLQPEDFATYYCRQVGSYPETFGQGTKLEIKRTVAAPSVFIFPPSDEQLKSGTASVVCLLNNFYPREAKVQWKVDNALQSGNSQESVTEQDSKDSTYSLSSTLTLSKADYEKHKVYACEVTHQGLSSPVTKSFNRGEC
notes: V1 wt hIgG1, V2 kappa; also called DVD1591H; DVD1591L

- Kd (Recombinant Human IL-17 [1]): 12 nM
- koff (Recombinant Human IL-17 [1]): 0.0001 s⁻¹
- kon (Recombinant Human IL-17 [1]): 8500 M⁻¹ s⁻¹
- Kd (Recombinant Human IL-1β [2]): 0.033 nM
- koff (Recombinant Human IL-1β [2]): 4.8e-05 s⁻¹
- kon (Recombinant Human IL-1β [2]): 1.4e+06 M⁻¹ s⁻¹
B2: DVD1262 (bispecific antibody, human IgG1, kappa)
heavy: not shown
light: DIQMTQSPSSLSASVGDRVTITCRASGNIHNYLTWYQQTPGKAPKLLIYNAKTLADGVPSRFSGSGSGTDYTFTISSLQPEDIATYYCQHFWSIPYTFGQGTKLQITRTVAAPDIQMTQSPSSLSASVGDRVTITCRASSGIISYIDWFQQKPGKAPKRLIYATFDLASGVPSRFSGSGSGTDYTLTISSLQPEDFATYYCRQVGSYPETFGQGTKLEIKRTVAAPSVFIFPPSDEQLKSGTASVVCLLNNFYPREAKVQWKVDNALQSGNSQESVTEQDSKDSTYSLSSTLTLSKADYEKHKVYACEVTHQGLSSPVTKSFNRGEC
notes: V1 wt hIgG1, V2 kappa; also called DVD1262H; DVD1262L

- Kd (Recombinant Human IL-17 [1]): 0.3 nM
- koff (Recombinant Human IL-17 [1]): 1.1e-05 s⁻¹
- kon (Recombinant Human IL-17 [1]): 37000 M⁻¹ s⁻¹
- Kd (Recombinant Human IL-1β [2]): 0.024 nM
- koff (Recombinant Human IL-1β [2]): 2.2e-05 s⁻¹
- kon (Recombinant Human IL-1β [2]): 940000 M⁻¹ s⁻¹
B3: DVD1264 (bispecific antibody, human IgG1, kappa)
heavy: not shown
light: B2 light
notes: V1 wt hIgG1, V2 kappa; also called DVD1264H; DVD1264L

- C-Terminal VD IL-1β Neutralization Assay EC50 (Recombinant Human IL-1β [3]): 9.38 nM
- N-terminal VD IL-17 Neutralization Assay EC50 (Recombinant Human IL-17 [4]): 0.0041 nM
B4: DVD1630 (bispecific antibody, human IgG1, kappa)
heavy: not shown
light: EIVLTQSPDFQSVTPKEKVTITCRASQDIGSELHWYQQKPDQPPKLLIKYASHSTSGVPSRFSGSGSGTDFTLTINGLEAEDAGTYYCHQTDSLPYTFGPGTKVDIKRTVAAPDIQMTQSPSSLSASVGDRVTITCRASGNIHNYLTWYQQTPGKAPKLLIYNAKTLADGVPSRFSGSGSGTDYTFTISSLQPEDIATYYCQHFWSIPYTFGQGTKLQITRTVAAPSVFIFPPSDEQLKSGTASVVCLLNNFYPREAKVQWKVDNALQSGNSQESVTEQDSKDSTYSLSSTLTLSKADYEKHKVYACEVTHQGLSSPVTKSFNRGEC

- C-Terminal VD IL-1β Neutralization Assay EC50 (Recombinant Human IL-1β [3]): 0.438 nM
- N-terminal VD IL-17 Neutralization Assay EC50 (Recombinant Human IL-17 [4]): 0.0065 nM
B5: DVD1632 (bispecific antibody, human IgG1, kappa)
heavy: not shown
light: B4 light

- N-Terminal VD IL-1β Neutralization Assay EC50 (Recombinant Human IL-1β [3]): 0.0126 nM
- C-terminal VD IL-17 Neutralization Assay EC50 (Recombinant Human IL-17 [4]): 0.359 nM
B6: DVD1629 (bispecific antibody, human IgG1, kappa)
heavy: not shown
light: DIQMTQSPSSLSASVGDRVTITCRASGNIHNYLTWYQQTPGKAPKLLIYNAKTLADGVPSRFSGSGSGTDYTFTISSLQPEDIATYYCQHFWSIPYTFGQGTKLQITRTVAAPEIVLTQSPDFQSVTPKEKVTITCRASQDIGSELHWYQQKPDQPPKLLIKYASHSTSGVPSRFSGSGSGTDFTLTINGLEAEDAGTYYCHQTDSLPYTFGPGTKVDIKRTVAAPSVFIFPPSDEQLKSGTASVVCLLNNFYPREAKVQWKVDNALQSGNSQESVTEQDSKDSTYSLSSTLTLSKADYEKHKVYACEVTHQGLSSPVTKSFNRGEC

- N-Terminal VD IL-1β Neutralization Assay EC50 (Recombinant Human IL-1β [3]): 0.00417 nM
- C-terminal VD IL-17 Neutralization Assay EC50 (Recombinant Human IL-17 [4]): 0.46 nM
B7: DVD1631 (bispecific antibody, human IgG1, kappa)
heavy: not shown
light: B6 light

- N-Terminal VD IL-1β Neutralization Assay EC50 (Recombinant Human IL-1β [3]): 0.621 nM
- C-terminal VD IL-17 Neutralization Assay EC50 (Recombinant Human IL-17 [4]): 0.0586 nM
B8: DVD1627 (bispecific antibody, human IgG1, kappa)
heavy: not shown
light: ETTVTQSPSSLSASVGDRVTITCITSTDIDVDMNWYQQKPGKPPKLLISQGNTLRPGVPSRFSSSGSGTDFTFTISSLQPEDFATYYCLQSDNLPLTFGQGTKLEIKRTVAAPDIQMTQSPSSLSASVGDRVTITCRASSGIISYIDWFQQKPGKAPKRLIYATFDLASGVPSRFSGSGSGTDYTLTISSLQPEDFATYYCRQVGSYPETFGQGTKLEIKRTVAAPSVFIFPPSDEQLKSGTASVVCLLNNFYPREAKVQWKVDNALQSGNSQESVTEQDSKDSTYSLSSTLTLSKADYEKHKVYACEVTHQGLSSPVTKSFNRGEC

- Kd (Recombinant Human IL-17 [1]): 0.027 nM
- koff (Recombinant Human IL-17 [1]): 9.2e-06 s⁻¹
- kon (Recombinant Human IL-17 [1]): 340000 M⁻¹ s⁻¹
- Kd (Recombinant Human IL-1β [2]): 0.064 nM
- koff (Recombinant Human IL-1β [2]): 0.00047 s⁻¹
- kon (Recombinant Human IL-1β [2]): 7.4e+06 M⁻¹ s⁻¹
B9: DVD1593 (bispecific antibody, human IgG1, kappa)
heavy: not shown
light: DTQVTQSPSSLSASVGDRVTITCITSTDIDVDMNWYQQKPGKPPKLLISQGNTLRPGVPSRFSSSGSGTDFTFTISSLQPEDFATYYCLQSDNLPLTFGQGTKLEIKRTVAAPSVFIFPPDIQMTQSPSSLSASVGDRVTITCRASSGIISYIDWFQQKPGKAPKRLIYATFDLASGVPSRFSGSGSGTDYTLTISSLQPEDFATYYCRQVGSYPETFGQGTKLEIKRTVAAPSVFIFPPSDEQLKSGTASVVCLLNNFYPREAKVQWKVDNALQSGNSQESVTEQDSKDSTYSLSSTLTLSKADYEKHKVYACEVTHQGLSSPVTKSFNRGEC
notes: DVD-Ig, outer AB270, inner AB273, linker set 2; V1 wt hIgG1, V2 kappa; also called DVD1593H; DVD1593L

- C-Terminal VD IL-1β Neutralization Assay EC50 (Recombinant Human IL-1β [3]): 1.08 nM
- N-terminal VD IL-17 Neutralization Assay EC50 (Recombinant Human IL-17 [4]): 0.0122 nM
B10: DVD1644 (bispecific antibody, human IgG1, kappa)
heavy: not shown
light: EIVLTQSPDFQSVTPKEKVTITCRASQNIGSELHWYQQKPDQSPKLLIKYASHSISGVPSRFSGSGSGTDFTLTINGLEAEDAATYYCHQSDTLPHTFGQGTKVDIKRTVAAPDTQVTQSPSSLSASVGDRVTITCITSTDIDVDMNWYQQKPGKPPKLLISQGNTLRPGVPSRFSSSGSGTDFTFTISSLQPEDFATYYCLQSDNLPLTFGQGTKLEIKRTVAAPSVFIFPPSDEQLKSGTASVVCLLNNFYPREAKVQWKVDNALQSGNSQESVTEQDSKDSTYSLSSTLTLSKADYEKHKVYACEVTHQGLSSPVTKSFNRGEC

- N-Terminal VD IL-1β Neutralization Assay EC50 (Recombinant Human IL-1β [3]): 0.522 nM
- C-terminal VD IL-17 Neutralization Assay EC50 (Recombinant Human IL-17 [4]): 0.0076 nM
B11: DVD1625 (bispecific antibody, human IgG1, kappa)
heavy: not shown
light: DTVVTQSPAFLSVTPGEKVTITCITSTDIDVDMNWYQQKPDQPPKLLISQGNTLRPGVPSRFSSSGSGTDFTFTISSLEAEDAATYYCLQSDNLPLTFGQGTKLEIKRTVAAPDIQMTQSPSSLSASVGDRVTITCRASSGIISYIDWFQQKPGKAPKRLIYATFDLASGVPSRFSGSGSGTDYTLTISSLQPEDFATYYCRQVGSYPETFGQGTKLEIKRTVAAPSVFIFPPSDEQLKSGTASVVCLLNNFYPREAKVQWKVDNALQSGNSQESVTEQDSKDSTYSLSSTLTLSKADYEKHKVYACEVTHQGLSSPVTKSFNRGEC

- Kd (Recombinant Human IL-17 [1]): < 0.02 nM
- koff (Recombinant Human IL-17 [1]): < 1e-06 s⁻¹
- kon (Recombinant Human IL-17 [1]): 51000 M⁻¹ s⁻¹
- Kd (Recombinant Human IL-1β [2]): 0.067 nM
- koff (Recombinant Human IL-1β [2]): 0.00057 s⁻¹
- kon (Recombinant Human IL-1β [2]): 8.5e+06 M⁻¹ s⁻¹
B12: DVD1268 (bispecific antibody, human IgG1, kappa)
heavy: not shown
light: B11 light
notes: DVD-Ig, outer AB271, inner AB273, linker set 1; V1 wt hIgG1, V2 kappa; also called DVD1268H; DVD1268L

- C-Terminal VD IL-1β Neutralization Assay EC50 (Recombinant Human IL-1β [3]): 17.4 nM
- N-terminal VD IL-17 Neutralization Assay EC50 (Recombinant Human IL-17 [4]): 0.0064 nM
B13: DVD1626 (bispecific antibody, human IgG1, kappa)
heavy: not shown
light: DIQMTQSPSSLSASVGDRVTITCRASSGIISYIDWFQQKPGKAPKRLIYATFDLASGVPSRFSGSGSGTDYTLTISSLQPEDFATYYCRQVGSYPETFGQGTKLEIKRTVAAPDTVVTQSPAFLSVTPGEKVTITCITSTDIDVDMNWYQQKPDQPPKLLISQGNTLRPGVPSRFSSSGSGTDFTFTISSLEAEDAATYYCLQSDNLPLTFGQGTKLEIKRTVAAPSVFIFPPSDEQLKSGTASVVCLLNNFYPREAKVQWKVDNALQSGNSQESVTEQDSKDSTYSLSSTLTLSKADYEKHKVYACEVTHQGLSSPVTKSFNRGEC

- C-Terminal VD IL-1β Neutralization Assay EC50 (Recombinant Human IL-1β [3]): 5.85 nM
- N-terminal VD IL-17 Neutralization Assay EC50 (Recombinant Human IL-17 [4]): 0.0163 nM
B14: DVD1628 (bispecific antibody, human IgG1, kappa)
heavy: not shown
light: DIQMTQSPSSLSASVGDRVTITCRASSGIISYIDWFQQKPGKAPKRLIYATFDLASGVPSRFSGSGSGTDYTLTISSLQPEDFATYYCRQVGSYPETFGQGTKLEIKRTVAAPETTVTQSPSSLSASVGDRVTITCITSTDIDVDMNWYQQKPGKPPKLLISQGNTLRPGVPSRFSSSGSGTDFTFTISSLQPEDFATYYCLQSDNLPLTFGQGTKLEIKRTVAAPSVFIFPPSDEQLKSGTASVVCLLNNFYPREAKVQWKVDNALQSGNSQESVTEQDSKDSTYSLSSTLTLSKADYEKHKVYACEVTHQGLSSPVTKSFNRGEC
